Measured values reported in doi:10.1101/2021.10.03.462214 (bioRxiv, 2021).

Target: UBg_8UBgg (UniProt P0CG47, G76 deletion)
Assay: cryo-EM structure

binding result: binds
B1: Rpn10 (natural protein)
chain: MVLESTMVCVDNSEYMRNGDFLPTRLQAQQDAVNIVCHSKTRSNPENNVGLITLANDCEVLTTLTPDTGRILSKLHTVQPKGKITFCTGIRVAHLALKHRQGKNHKMRIIAFVGSPVEDNEKDLVKLAKRLKKEKVNVDIINFGEEEVNTEKLTAFVNTLNGKDGTGSHLVTVPPGPSLADALISSPILAGEGGAMLGLGASDFEFGVDPSADPELALALRVSMEEQRQRQEEEARRAAAASAAEAGIATTGTEDSDDALLKMTISQQEFGRTGLPDLSSMTEEEQIAYAMQMSLQGAEFGQAESADIDASSAMDTSEPAKEEDDYDVMQDPEFLQSVLENLPGVDPNNEAIRNAMGSLASQATKDGKKDKKEEDKK
